US20230078265A1, “METHODS AND COMPOSITIONS FOR EDITING NUCLEOTIDE SEQUENCES” (The Broad Institute, Inc., priority 2019, published 2023)

B1: 1024-CFN: intein-split PE with extein residues mutated to Npu-native CFN (protein)
chain: MKRTADGSEFESPKKKRKVIKIATRKYLGKQNVYDIGVERDHNFALKNGFIASNCFNEIGKATAKYFFYSNIMNFFKTEITLANGEIRKRPLIETNGETGEIVWDKGRDFATVRKVLSMPQVNIVKKTEVQTGGFSKESILPKRNSDKLIARKKDWDPKKYGGFDSPTVAYSVLVVAKVEKGKSKKLKSVKELLGITIMERSSFEKNPIDFLEAKGYKEVKKDLIIKLPKYSLFELENGRKRMLASAGELQKGNELALPSKYVNFLYLASHYEKLKGSPEDNEQKQLFVEQHKHYLDEIIEQISEFSKRVILADANLDKVLSAYNKHRDKPIREQAENIIHLFTLTNLGAPAAFKYFDTTIDRKRYTSTKEVLDATLIHQSITGLYETRIDLSQLGGDSGGSSGGSSGSETPGTSESATPESSGGSSGGSSTLNIEDEYRLHETSKEPDVSLGSTWLSDFPQAWAETGGMGLAVRQAPLIIPLKATSTPVSIKQYPMSQEARLGIKPHIQRLLDQGILVPCQSPWNTPLLPVKKPGTNDYRPVQDLREVNKRVEDIHPTVPNPYNLLSGLPPSHQWYTVLDLKDAFFCLRLHPTSQPLFAFEWRDPEMGISGQLTWTRLPQGFKNSPTLFNEALHRDLADFRIQHPDLILLQYVDDLLLAATSELDCQQGTRALLQTLGNLGYRASAKKAQICQKQVKYLGYLLKEGQRWLTEARKETVMGQPTPKTPRQLREFLGKAGFCRLFIPGFAEMAAPLYPLTKPGTLFNWGPDQQKAYQEIKQALLTAPALGLPDLTKPFELFVDEKQGYAKGVLTQKLGPWRRPVAYLSKKLDPVAAGWPPCLRMVAAIAVLTKDAGKLTMGQPLVILAPHAVEALVKQPPDRWLSNARMTHYQALLLDTDRVQFGPVVALNPATLLPLPEEGLQHNCLDILAEAHGTRPDLTDQPLPDADHTWYTDGSSLLQEGQRKAGAAVTTETEVIWAKALPAGTSAQRAELIALTQALKMAEGKKLNVYTDSRYAFATAHIHGEIYRRRGWLTSEGKEIKNKDEILALLKALFLPKRLSIIHCPGHQKGHSAEARGNRMADQAARKAAITETPDTSTLLIENSSPSGGSKRTADGSEFEPKKKRK
B2: 175-307 deletion: SpCas9 mutation relative to SEQ ID NO: 18 (protein)
chain: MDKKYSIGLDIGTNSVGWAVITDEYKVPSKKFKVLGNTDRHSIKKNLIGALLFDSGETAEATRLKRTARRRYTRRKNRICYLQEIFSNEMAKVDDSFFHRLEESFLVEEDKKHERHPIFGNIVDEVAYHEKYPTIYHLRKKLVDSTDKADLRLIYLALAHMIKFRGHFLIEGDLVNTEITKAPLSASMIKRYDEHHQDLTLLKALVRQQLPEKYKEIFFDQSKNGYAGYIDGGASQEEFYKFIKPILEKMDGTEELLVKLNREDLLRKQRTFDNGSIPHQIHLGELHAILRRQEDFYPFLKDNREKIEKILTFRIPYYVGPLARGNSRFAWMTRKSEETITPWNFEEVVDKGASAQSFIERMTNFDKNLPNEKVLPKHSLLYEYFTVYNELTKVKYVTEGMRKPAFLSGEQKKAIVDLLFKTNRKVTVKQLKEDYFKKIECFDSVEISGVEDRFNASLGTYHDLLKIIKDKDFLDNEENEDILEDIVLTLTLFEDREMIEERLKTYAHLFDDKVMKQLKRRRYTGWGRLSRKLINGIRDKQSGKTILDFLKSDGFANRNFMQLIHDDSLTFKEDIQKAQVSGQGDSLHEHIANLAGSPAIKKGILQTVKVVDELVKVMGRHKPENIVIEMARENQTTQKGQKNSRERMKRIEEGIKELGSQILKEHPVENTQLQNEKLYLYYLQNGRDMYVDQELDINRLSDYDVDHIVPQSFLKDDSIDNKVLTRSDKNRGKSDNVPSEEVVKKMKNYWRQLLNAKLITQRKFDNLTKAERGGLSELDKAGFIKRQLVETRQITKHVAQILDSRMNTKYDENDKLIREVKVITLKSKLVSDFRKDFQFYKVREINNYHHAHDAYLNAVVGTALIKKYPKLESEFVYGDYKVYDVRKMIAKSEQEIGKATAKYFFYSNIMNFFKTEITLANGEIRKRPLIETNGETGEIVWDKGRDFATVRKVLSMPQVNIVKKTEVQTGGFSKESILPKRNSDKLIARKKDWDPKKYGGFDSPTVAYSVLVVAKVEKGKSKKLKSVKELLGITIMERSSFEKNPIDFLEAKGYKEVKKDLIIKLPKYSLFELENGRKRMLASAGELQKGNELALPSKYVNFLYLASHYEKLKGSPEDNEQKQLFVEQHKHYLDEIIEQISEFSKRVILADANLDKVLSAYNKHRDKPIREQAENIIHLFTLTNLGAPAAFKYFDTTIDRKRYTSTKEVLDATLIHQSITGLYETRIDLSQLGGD
modifications: Streptococcus pyogenes

Assays:
[1] = system: HEK cells; test: Npu intein-split prime editors, plasmid transfection of HEK cells, high-throughput sequencing; assay type: cell-based; conditions: plasmids, split site 1023/1024
Source text: This Example is focused on a PE fusion protein comprising the canonical SpCas9 (SEQ ID NO: 18). The split sites for other Cas9 proteins may be the corresponding same site, or may need to be optimized for each different Cas9 protein. In the instant Example, the prime editor was split between residues 1023 and 1024 of SpCas9 (SEQ ID NO: 18). This is referred to as the “1023/1024” split site.
Prime editors (PEs) exceed the AAV packaging capacity.
It was therefore determined whether mutation from the Cas9-native “SEQ” towards the Npu intein “CFN” sequence altered efficiency of prime editing.

[2] = system: DNA; conditions: mutation relative to canonical SpCas9, SEQ ID NO: 18; cited from earlier work

Row | Molecule | prime editing activity compared with full-length PE3 [1] | decreased DNA cleavage [2]
1 | B1 | recapitulates full-length PE3 activity | 
2 | B2 |  | About 50% decreased DNA cleavage
